Legend:
[1] = test system: WT mice; experiment: Contextual Fear Conditioning after acute hippocampal injection; type: in vivo, mouse; details: for freezing behavior compared to controls, 24 hours after the initial shocks: 10 ng injected acutely in both hemispheres, n=4 per group
Method: FIG. 11. CREB activation by osteocalcin is functionally relevant. Contextual fear conditioning in 3.5 month old mice injected acutely with 10 ng recombinant uncarboxylated osteocalcin 24 hours prior to context exposure. 3 shocks of 0.55 mA were delivered to mice 1 min apart.
To determine whether these acute injections and corresponding activation of the CREB pathway are functionally relevant, Contextual Fear Conditioning (CFC), a hippocampus dependent task that assesses long term memory, was performed. Mice were injected acutely in both hemispheres with either PBS or 10 ng recombinant uncarboxylated osteocalcin.

[2] = test system: mouse primary hindbrain neurons (MPHN); experiment: Calcium flux in primary hindbrain neurons; type: cell-based; details: MPHN treated with undercarboxylated or carboxylated osteocalcin
Method: For calcium imaging, primary hindbrain neurons seeded on 12 mm coverslips were allowed the appropriate time to form structural networks. These cultures were washed with HBSS and loaded with 2.5 μM FURA-2, AM calcium indicator for 45 minutes at room temperature, according to the manufacturer's protocol. Cells were then washed to remove excess indicator and incubated for 30 minutes to allow internalized esters to become de-esterified. 30 ng/ml of osteocalcin was prepared with the control buffer of 1×HBBS supplemented with 10 mM HEPES buffer and 2 mM CaCl2. Using a Zeiss microscope with a perfusion system, coverslips were first perfused with control and osteocalcin. After each stimulation, cells were depolarized with 50 mM KCl to determine the percentage of live cells being imaged. All treatments were recorded using two-photon laser scanning microscopy by Prairie Technologies and analyzed by Z axis profile plotting using ImageJ.
To determine if osteocalcin acts directly on neurons to modulate neurotransmitter synthesis, several types of assays were performed. First, brainstem and midbrain explants from WT and Gprc6a^−/− mice were generated. […] Third, to further confirm that osteocalcin signals in neurons of the hindbrain, calcium flux in MPHN treated with undercarboxylated or carboxylated osteocalcin (FIG. 3F) was measured. […]

[3] = test system: Osteocalcin-/- mice; experiment: Intracerebro-ventricular (ICV) infusion in Osteocalcin-/- mice, behavioral tests; type: in vivo, mouse
Method: FIG. 4. Administration of osteocalcin prevents anxiety and depression. (A-E) Behavioral analyses of adult Osteocalcin^−/− mice receiving osteocalcin through intracerebro-ventricular (ICV) infusions. (A) Light and Dark test, (B) Elevated plus maze test, (C) Open field test, (D) Forced swim test, and (E) Tail suspension test performed in a cohort of WT (n=7) and Osteocalcin^−/− infused with vehicle or osteocalcin (10 ng/hour). In each set of three bars, the rightmost bar represents the results following administration of osteocalcin.
Osteocalcin^−/−, Gprc6a^−/−, Osteocalcin-mCherry, and Osteocalcin floxed mice have been previously described (Ducy et al., 1996, Nature 382:448-452; Oury et al., 2011, Cell 144:796-809). Mouse genotypes were determined by PCR. For all experiments, controls were littermate female WT, Cre-expressing, or flox/flox. All mice were maintained on a pure 129-Sv genetic background except for the inducible deletion Osteocalcin model (mix background: 25% C57/BL6 and 75% 129sv). […] Leptin and osteocalcin content in sera and tissues were determined by ELISA.
Tail suspension testing was performed as previously described (Mayorga et al., 2001, J. Pharmacology Exper. Therapeutics 298:1101-1107; Stem et al., 1985, Psychopharmacology 85:367-370). […] The parameter recorded was the number of seconds spent immobile. Mice were scored by a highly trained observer, over a 5 min period, blind to the genotype of the mice.
Anxiety and locomotor activity of mice were measured using the open field test (David et al., 2009, Neuron 62:479-493). […] Mice were monitored throughout each test session by video tracking and analyzed using Matlab software. […] The overall motor activity was quantified as the total distance travelled. The anxiety was quantified measuring the number of rearings and the time and distance spent in the center versus periphery of the open field chamber (in %).
Each mouse was allowed to explore the apparatus for 5 min. Global activity was assessed by measuring the number of entries […] (David et al, 2009, Neuron 62:479-493). […]

B1: uncarboxylated osteocalcin: Recombinant osteocalcin bacterially produced, cleaved from the GST subunit; completely undercarboxylated at all three sites (protein, listed as Homo sapiens)
chain: MRALTLLALLALAALCIAGQAGAKPSGAESSKGAAFVSKQEGSEVVKRPRRYLYQWLGAPVPYPDPLEPRREVCELNPDCDELADHIGFQEAYRRFYGPV
modifications: uncarboxylated
notes: Recombinant osteocalcin bacterially produced, cleaved from the GST subunit; completely undercarboxylated at all three sites
- % freezing on Day 1 ([1]; 10 ng injected 24 hours prior to context exposure, 3.5 month old mice): the same for both groups
- freezing behavior compared to controls, 24 hours after the initial shocks [1]: increased freezing behavior
- freezing behavior compared to controls, 24 hours after the initial shocks ([1]; listed as recombinant uncarboxylated osteocalcin): increased freezing along with hyperexcitability
- calcium fluxes in primary hindbrain neurons [2]: induced changes in calcium fluxes
- leakage of centrally delivered hormone into the general circulation (osteocalcin in blood) ([3]; ICV 10 ng/hour, infused Osteocalcin-/- mice): no leakage
- anxiety and depression features (DLT, EPMT, OFT, FST, TST) ([3]; ICV 10 ng/hour, week-long treatment, Osteocalcin-/- mice): corrected the anxiety and depression features
- defects in anxiety, depression, learning, and memory ([3]; direct administration to the brains of adult Osteocalcin-/- mice): rescued defects in anxiety, depression, learning, and memory

From patent US10052364B2, “Osteocalcin as a treatment for cognitive disorders” (THE TRUSTEES OF COLUMBIA UNIVERSITY IN THE CITY OF NEW YORK, priority 2013, dated 2018)
